Test results taken from PMC11551746, “The Swi5–Sfr1 complex regulates Dmc1- and Rad51-driven DNA strand exchange proceeding through two distinct three-stranded intermediates by different mechanisms” (Nucleic Acids Research, 2024).

What was measured:
[1] = target: T1, Rad51 (Schizosaccharomyces pombe, UniProt P36601); assay: fluorescence anisotropy of Rad51-ssDNA filament; type: binding; details: 1 mM AMP-PNP, 3 mM MgCl2, 100 mM KCl, pH 7.5, 25 °C, TAMRA-oligo dT; compared with ATP
T1 construct: purified as described previously; filament on ssDNA
T1 sequence (P36601 1-365): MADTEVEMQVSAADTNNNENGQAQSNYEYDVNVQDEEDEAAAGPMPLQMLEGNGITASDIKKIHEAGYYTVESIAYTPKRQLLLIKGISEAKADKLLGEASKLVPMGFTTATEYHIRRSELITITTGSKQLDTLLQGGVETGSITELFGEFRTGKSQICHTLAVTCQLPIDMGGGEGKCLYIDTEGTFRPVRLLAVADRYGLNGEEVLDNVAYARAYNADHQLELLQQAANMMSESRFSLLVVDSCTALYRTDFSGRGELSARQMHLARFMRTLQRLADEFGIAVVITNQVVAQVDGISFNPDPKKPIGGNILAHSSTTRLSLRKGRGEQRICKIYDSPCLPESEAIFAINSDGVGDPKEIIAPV

[2] = target: T2, Dmc1 (Schizosaccharomyces pombe, UniProt O42634); assay: fluorescence anisotropy of Dmc1-ssDNA filament; FRET strand exchange; type: binding; details: 1 mM AMP-PNP, 3 mM MgCl2, 100 mM KCl, pH 7.5, 25 °C, TAMRA-oligo dT (anisotropy); compared with ATP
T2 construct: purified as described previously; filament on ssDNA
T2 sequence (O42634 1-332): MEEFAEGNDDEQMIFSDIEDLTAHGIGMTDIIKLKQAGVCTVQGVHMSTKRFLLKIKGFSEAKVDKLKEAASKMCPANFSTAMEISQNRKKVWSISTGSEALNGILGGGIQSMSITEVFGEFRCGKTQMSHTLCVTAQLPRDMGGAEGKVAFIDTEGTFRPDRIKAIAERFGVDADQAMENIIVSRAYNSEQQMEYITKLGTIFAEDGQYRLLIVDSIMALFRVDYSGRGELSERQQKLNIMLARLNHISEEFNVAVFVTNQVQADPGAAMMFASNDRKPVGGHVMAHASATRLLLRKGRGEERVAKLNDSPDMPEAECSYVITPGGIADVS

[3] = target: T2, Dmc1; assay: FRET real-time DNA strand pairing and displacement; type: biochemical; details: 1 mM ATP, 5 mM MgCl2, 25 mM KCl, pH 7.5, 30 °C, 83-mer ssDNA, 40-83 bp dsDNA; compared with ADP
[4] = target: T3, Dmc1 (Schizosaccharomyces pombe? (fission …, UniProt O42634 1-332)); assay: fluorescence anisotropy; 1 mM ADP, Mg2+; Hill fit; 30 mM HEPES-KOH pH 7.5, 100 mM KCl, 3 mM MgCl2 or CaCl2, 1 mM DTT, 5% glycerol, 1 mM adenine nucleotide, 3 uM (nt) TAMRA-dT72, 25 C; details: protein: recombinant; label: 5' TAMRA; single-stranded
T3 sequence: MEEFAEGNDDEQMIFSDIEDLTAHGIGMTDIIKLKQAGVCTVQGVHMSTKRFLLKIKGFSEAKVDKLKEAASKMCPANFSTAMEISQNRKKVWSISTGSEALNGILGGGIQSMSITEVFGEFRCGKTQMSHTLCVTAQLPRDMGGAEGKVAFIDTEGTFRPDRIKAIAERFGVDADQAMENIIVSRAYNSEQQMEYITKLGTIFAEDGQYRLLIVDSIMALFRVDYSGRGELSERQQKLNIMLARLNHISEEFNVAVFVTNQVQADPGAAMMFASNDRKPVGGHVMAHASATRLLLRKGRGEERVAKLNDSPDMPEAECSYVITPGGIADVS

[5] = target: T3, Dmc1; assay: fluorescence anisotropy; 1 mM AMP-PNP, Mg2+; Hill fit; 30 mM HEPES-KOH pH 7.5, 100 mM KCl, 3 mM MgCl2 or CaCl2, 1 mM DTT, 5% glycerol, 1 mM adenine nucleotide, 3 uM (nt) TAMRA-dT72, 25 C; details: protein: recombinant; label: 5' TAMRA; single-stranded
[6] = target: T4, Rad51 (Schizosaccharomyces pombe? (fission …, UniProt P36601 1-365)); assay: fluorescence anisotropy; 1 mM ATP, 3 mM Mg2+; Hill fit; 30 mM HEPES-KOH pH 7.5, 100 mM KCl, 3 mM MgCl2 or CaCl2, 1 mM DTT, 5% glycerol, 1 mM adenine nucleotide, 3 uM (nt) TAMRA-dT72, 25 C; details: protein: recombinant; label: 5' TAMRA; single-stranded
T4 sequence: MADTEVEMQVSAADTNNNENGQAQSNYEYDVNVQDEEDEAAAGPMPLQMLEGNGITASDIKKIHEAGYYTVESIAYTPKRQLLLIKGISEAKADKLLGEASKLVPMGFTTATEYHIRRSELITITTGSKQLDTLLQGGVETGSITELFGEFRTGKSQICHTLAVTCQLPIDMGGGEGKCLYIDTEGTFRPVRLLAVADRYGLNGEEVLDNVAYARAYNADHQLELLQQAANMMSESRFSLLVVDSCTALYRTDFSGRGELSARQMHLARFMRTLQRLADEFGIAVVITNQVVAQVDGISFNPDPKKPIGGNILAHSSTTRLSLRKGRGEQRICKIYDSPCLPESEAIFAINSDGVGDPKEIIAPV

[7] = target: T3, Dmc1; assay: as above; details: protein: recombinant; label: 5' TAMRA; single-stranded
[8] = target: T3, Dmc1; assay: fluorescence anisotropy; 3 mM Ca2+ in place of Mg2+, ATP?; Hill fit; 30 mM HEPES-KOH pH 7.5, 100 mM KCl, 3 mM MgCl2 or CaCl2, 1 mM DTT, 5% glycerol, 1 mM adenine nucleotide, 3 uM (nt) TAMRA-dT72, 25 C; details: protein: recombinant; label: 5' TAMRA; single-stranded
[9] = target: T3, Dmc1; assay: fluorescence anisotropy; ssDNA preincubated with Swi5-Sfr1 (0.1 uM or more), ATP?, Mg2+; Hill fit; 30 mM HEPES-KOH pH 7.5, 100 mM KCl, 3 mM MgCl2 or CaCl2, 1 mM DTT, 5% glycerol, 1 mM adenine nucleotide, 3 uM (nt) TAMRA-dT72, 25 C; details: protein: recombinant; label: 5' TAMRA; single-stranded

## Nc1ncnc2c1ncn2[C@@H]1O[C@H](COP(=O)(O)OP(=O)(O)NP(=O)(O)O)[C@@H](O)[C@H]1O [AMP–PNP]
[1]
  fluorescence anisotropy of Rad51-ssDNA filament: AMP–PNP significantly stabilized the Rad51 filament
[2]
  fluorescence anisotropy of Dmc1-ssDNA filament; FRET strand exchange: AMP–PNP strongly stabilizes the Dmc1–ssDNA filament

## Nc1ncnc2c1ncn2[C@@H]1O[C@H](COP(=O)(O)OP(=O)(O)OP(=O)(O)O)[C@@H](O)[C@H]1O [ATP]
[3]
  FRET real-time DNA strand pairing and displacement: the ATP-bound form of Dmc1 is sufficient for three-stranded intermediate formation

B1: [TAMRA]dT72 (ssDNA)
DNA: TTTTTTTTTTTTTTTTTTTTTTTTTTTTTTTTTTTTTTTTTTTTTTTTTTTTTTTTTTTTTTTTTTTTTTTT
[4]
  Kd: 1970 nM
[5]
  Kd: 547 nM
[6]
  Kd: 308 nM
[7]
  Kd: 1220 nM
[8]
  Kd: 227 nM
[9]
  Kd: ~510 nM
